{"source": "a protein production outcome set (Wang et al. 2014)", "data": [{"assay": "label from the status in PepcDB records", "values": [{"sequence": "MSAPQAPSAPHSPPDVPVMQVIFGLMLAIMLGALEQSIVAVVLPEIALQLNGFEDMAWVISAYLVASTVVTPIYGKLSDVLGRRSVLTFSIVLFVLASIACAMATTMPMLIVARILQGLGGGGLISVSQATIADVVPLRERGKYQGYVSGVWAVASMAGPVIGGYLAHFLSWRWIFWINIPLGLIALIVVRRALRHLPVSGRKHRIDYLGALLFGGGLSGVLVFLTRMGQGHSPLEPQTIGLLAAGLIGLVLFIWQERRAVDPVIPLKMLAVPTVAICCLTLFLCFFQLIAMSVLLPLRFQVVGGAGADTAALRLVPLTLAIPFGAYASGRLMSWSGRYKPLQLAGCLVAPIAIVGLAFVPPQAVVPAALVMIVLGLSIGLQLPSGLVATQNSVPPQQVGIATALTAFSRLLGGAVGVAVLTTVLIALLRHSGMAVSDLHGGEDVLMSMFRRAMDAGDQGDAAAVREAAEHAFRLLFLMSAGVSLIAPFFVMRLKEKTLRGSPAGAAASAAAE", "protein production": "failed"}, {"sequence": "MSAPSDTPTYLHGFSATEQARLLKQARLLETTLFNQIDYSGARRLLEVGSGVGAQTEILLRRFPELHVTGVDLSETQLDAARANLERLAWCRARYTLQQADASDLPFEARQFDAAFLCWVLEHVPSPARVLNEVRRVLLPGSPVYVTEVMNASFLLHPYSPSLWRYWMAFNDFQHDQGGDPFVGAKLGNLLLAGGFRDVHTQIKTLHLDNREPGRRKTMIGFWEEVLLSAADQLLQAGAVEAATVDGMRRELAQVHSDPDAVFFYSFVQARATVY", "protein production": "failed"}, {"sequence": "MSAQKQEKTNVFLDPSKNEAYFKKRVGMGESFDLGVRKVFILGHEVQLYYVNGLCDTQYIIHLLRELVHLNDKEKESGEVEDIVENRLLNQQVSKAETLDEAVDQVLSGLVAIIVEDAGFAFIIDVRSYPGRTPEEPDTEKVVRGARDGLVENIIVNTALIRRRIRDERLRYKMLHIGERSKTDICLCYLEDVADPDLVEVLKKEIEDVKIDGLPMSDKSVEEFLVGQGYNPFPLVRFTERADVAASHILEGHVIVIVDTSPSVIITPTTLFHHVQHAEEYRQTPAVGTFLRWVRFFGILASTFLLPLWLLFVIHPSLLPDNLSFIGLNKDTHIPIIMQIFLADLGVEFLRMAAIHTPTALSTAMGLIAAVLIGDIAINVGLFSPEVILYVSLSAIGAYTTPSYELSLANKMVKLFMLILVALFKVEGFVIGLTILTIVMTSIRSLRTPYLWPLLPFNGKAFWHVLVRTSVPGGKVRPSIVHPRNRSRQP", "protein production": "failed"}, {"sequence": "MSARLDAQIAFLKQADRLKSVERANVLLDLSRPENSAEHSWHLALWALVLSPFAAPDVDVDRAIRMLLLHDLVEIETGDHPIHEVTDWQAVERAERAAARKLFGLLPPDQAADFHTLWTEFDADETADARYAKMLDRCQPMFQVLCADTPRPDHVEVVRENLSSGRAAYLAEAFPEAHAHARALLERHPPVTGGFGDRLEFLAEADRLKTVLRASRLMDDSRFENSAEHSWHIMLYAWVLGEYAAAPVDIDRVLRMLLLHDLVEIDAGDNPIHGNVDHAAQEALEAAAAERLFGLLPPDQGAGLRAIWQEFETAQSADALFGKAVDRVQTPIANLENGGGSWVTYDVSLQQLVARVGTPVSRGAPGLWDWLFPQLSDCFTRLGLRLLEHHHHHH", "protein production": "not failed"}, {"sequence": "MSASAVHSLWTTAADPISKIDAPKIEYGQLSPTLIVIGAALVGVLVEAFVPRKSRYYAQVFVSVVALAAAFAAVVALAAGGYGTTKAHIAAMGAIAVDGPALFLQGTILLAGLLGVFTFAERRLDPEVHGNRVDSFAAQAASVPGSDSEKAAVKAGFTTTEVFPLLLFAVGGMLIFPSANDLLTLFVALEVFSLPLYLLCAVARRKRLMSQEAAVKYFLLGAFASAFTLFGIALLYGYAGSMSYATIAQVVDGTVQNVDPALAGTMGNDALLLVGAAMLVMGLLFKVGAVPFHMWTPDVYQGAPTPVTGFMAAATKVAAFGALLRLLYVVLPGLRWDWRPVMWAVAIVTMLGGAIVAITQTDIKRLLAYSSIAHAGFILAGVIATTPDGVSSVLFYLGAYSFVTIGAFAVVTLVRDAGGEATHLSKWAGLGRRSPLVAAVFAVFLLAFAGIPLTSGFAGKFAVFKAAAEGGAAPLVVVGVISSAIAAFFYIRVIVLMFFSEPRPEGPTVAVPSPLTTTVIGVGVVVTLVLGVAPQYFLDLAG", "protein production": "failed"}, {"sequence": "MSASVKESLQLQLLEMEMLFSMFPNQGEVKLEDVNALTNIKRYLEGTREALPPKIEFVITLQIEEPKVKIDLQVTMPHSYPYLALQLFGRSSELDRHQQLLLNKGLTSYIGTFDPGELCVCAAIQWLQDNSASYFLNRKLV", "protein production": "not failed"}, {"sequence": "MSASVLSDPTMLISTPEVILVSPVSVTQISGDEPDSVTCDCCGLTEECTQSYIEMVRERYMGKWICGLCSEAVKYEVMRTKRLLTTEEAMARHMNMCNKFKSSSPPPNPTGHLISAMRQILRKSLDSPRMLRSMPNSPSKDDQDHHHDCVSNVLSRSDSCFASLT", "protein production": "failed"}, {"sequence": "MSATAAARKRGKPASGAGAGAGAGKRRRKADSAGDRGKSKGGGKMNEEISSDSESESLAPRKPEEEEEEELEETAQEKKLRLAKLYLEQLRQQEEEKAEARAFEEDQVAGRLKEDVLEQRGRLQKLVAKEIQAPASADIRVLRGHQLSITCLVVTPDDSAIFSAAKDCSIIKWSVESGRKLHVIPRAKKGAEGKPPGHSSHVLCMAISSDGKYLASGDRSKLILIWEAQSCQHLYTFTGHRDAVSGLAFRRGTHQLYSTSHDRSVKVWNVAENSYVETLFGHQDAVAALDALSRECCVTAGGRDGTVRVWKIPEESQLVFYGHQGSIDCIHLINEEHMVSGADDGSVALWGLSKKRPLALQREAHGLRGEPGLEQPFWISSVAALLNTDLVATGSHSSCVRLWQCGEGFRQLDLLCDIPLVGFINSLKFSSSGDFLVAGVGQEHRLGRWWRIKEARNSVCIIPLRRVPVPPAAGS", "protein production": "failed"}, {"sequence": "MSAYDNVIGGKLKLKGKALDVKAGGVKKKKKHKRQEEQALKITDHELIEGESTEALGKLIEGEEGDEEMNRSEKASEDAKLQQQLDDDDHLTPAERRYIEQKQRLDVQKLAKEANKSHRNRIEDFNQYLANMSEHYDIPKVGPG", "protein production": "failed"}, {"sequence": "MSCKKTEKFSETWFFKWILNNQAVVSFLILLLIGLTVLIFTKISPIFSPVIQFLTIVMLPLVISMLLYYLIKPLVLLVERTGLNRTMSILVIYAILALLLVWGISTAIPNLQDQILILLRNAPSYISRANSETERWLKLPILSNFHGDLEAMLSDFSARMINYAENFSTSALSWIGTFASTVARVTVAIILTPFILFYLLRDSQKLKHSFVSALPTRFRETTVRMLSDINNQLEGYVRGQVTVAIVIAIMFCIMFKIVGLRYGMTFGILAGFLNMIPYLGSFIAMVPVVIMGLVQGPTMLIKVLIIFVIEQTIEGRFVSPLVLGNKLSIHPITIMFILLTAGSLYGVWGVLLGIPIYASVKVIVKDIFDWYRSVSNLYQDDIEIKGQKYDVK", "protein production": "failed"}, {"sequence": "MSDAETLSVYAAKADDYANLTDEAAARDPSLVAFIAAMPKRGRVLDLGCGPGGSAAAMARAGLVVDAFDPVPEMVALAGRHAGVSARKAGFEDVTQVDHYDGIWANFSLLHAPRDDMPKHLARIATALKPGGRFHIGVKTGTGSKRDTLGRRYTYYSESELVDLLAAAGLTVFDRREGCDTGLDGVDAHWIVLAAHA", "protein production": "failed"}, {"sequence": "MSDALINGLAGAGGGIIAQLLTYPLQTVNTRQQTERDLKREKRKLGTIEHMCQVVKQEGWERLYGGLAPSLAGTAASQGVYYYFYQVFRNRAEATALARKKKGLGDGSVGMFASLLVAAFAGSVNVLMTNPIWVIVTRMQTHRKMTKDQTAAPESPSSNAEALVAVEPRPYGTFNTIREVYDEAGITGFWKGVIPTLIMVSNPSMQFMLYETMLTKLKKKRALKGSNNVTALETFLLGAVAKLGATVTTYPLLVVKSRLQAKQVTTGDKRQQYKGTLDAILKMIRYEGLYGFYKGMSTKIVQSVLAAAVLFMIKEELVKGAKLLLSNATSS", "protein production": "failed"}, {"sequence": "MSDDDDIQYIKRQRTLHYGSLEESERKRQNAAASGAAATTTSGTTASSGAGTTTTGTGGQLEDIDSDEDYEESTKKTSNAKQAGAPPPTAATLANKIDDDYFDLEMEMERDKVALLEEFERKKRARQINVSTDDTEIKSNLRQLNEPICYFGEGPAERRRRLKELLAGLGENAINKRQYEDEERKQQQREQDQATWYHEGPDSLRIARLWLADYSLPRAKDRLVRAREALEVPSAARAGRMVEMQKKLQSLAPLCSQVGDTRPVSSAAFSEDSSLLLTSSWSGLCKLWSVPDCELKQTLRGHASYVGGVALRPGVKADEENVVAMASGGHDGAVKLWGFNNEESIADITGHMPHRVSKVAFHPSGRFLATACYDSSWRLWDLEQKTEVLHQEGHAKPVHCLSYHSDGSVLVTGGLDAFGRVWDLRTGRCIMFLEGHLGAVFGVDFSPNGFHIATGSQDNTCKIWDLRRRQPVYTIPAHTNLISDVKYQQECGSFLVTCSYDSTTKIWSNKTWQPLKTLQGHDNKVISVDIAPNSQYIATTSFDRTFKLWSPDS", "protein production": "failed"}]}]}
